The assay deals with T1, Vps3-TAP (full-length Vps3, C-terminal TAP tag) (yeast (genomic locus of BY4741/BY4733 …, UniProt P23643 1-1011)).
T1 construct: Vps3, CORVET-specific subunit, yeast, full-length; also called Vps3-Cbp; source: yeast, genomically TAP-tagged, in lysate; overexpressed and TAP-purified from yeast for the GST-Rab pull-down; not shown: TAP, C-terminal, kept
T1 sequence (looked up): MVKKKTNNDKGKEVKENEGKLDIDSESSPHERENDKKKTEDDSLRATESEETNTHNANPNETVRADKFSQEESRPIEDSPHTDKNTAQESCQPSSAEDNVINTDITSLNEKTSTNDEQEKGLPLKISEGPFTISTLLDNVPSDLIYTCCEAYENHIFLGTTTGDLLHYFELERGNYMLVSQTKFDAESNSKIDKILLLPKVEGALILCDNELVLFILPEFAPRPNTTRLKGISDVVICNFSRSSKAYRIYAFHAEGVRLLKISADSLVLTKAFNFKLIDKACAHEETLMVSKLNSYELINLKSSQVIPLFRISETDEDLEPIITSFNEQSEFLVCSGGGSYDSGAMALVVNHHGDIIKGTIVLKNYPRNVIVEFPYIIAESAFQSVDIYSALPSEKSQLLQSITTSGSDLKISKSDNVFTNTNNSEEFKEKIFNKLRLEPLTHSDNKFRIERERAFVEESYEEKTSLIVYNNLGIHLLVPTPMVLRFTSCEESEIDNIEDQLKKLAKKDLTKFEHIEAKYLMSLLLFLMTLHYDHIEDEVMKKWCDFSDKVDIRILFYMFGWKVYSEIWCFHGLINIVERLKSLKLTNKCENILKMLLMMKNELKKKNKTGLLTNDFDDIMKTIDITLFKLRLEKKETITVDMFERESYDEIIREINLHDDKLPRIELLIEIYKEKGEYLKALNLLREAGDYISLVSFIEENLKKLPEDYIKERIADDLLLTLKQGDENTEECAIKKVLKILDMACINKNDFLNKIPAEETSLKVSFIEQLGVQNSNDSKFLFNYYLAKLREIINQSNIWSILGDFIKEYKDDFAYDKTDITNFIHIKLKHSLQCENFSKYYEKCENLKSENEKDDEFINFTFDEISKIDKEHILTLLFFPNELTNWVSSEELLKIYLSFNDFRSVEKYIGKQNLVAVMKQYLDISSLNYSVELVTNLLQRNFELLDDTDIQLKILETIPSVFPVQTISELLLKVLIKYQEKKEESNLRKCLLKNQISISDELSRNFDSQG
Nature of the assay: pull-down; 150 µg GST-Vps21 loaded with GTPγS (or GDP) on GSH-Sepharose; 35 µg yeast-purified Vps3-Cbp construct, 1 h at 4°C; 20 mM HEPES/NaOH pH 7.4, 150 mM NaCl, 2 mM MgCl2, 0.1% NP-40, 7 mg/ml BSA; eluted with 20 mM EDTA; blot against Cbp. The settings on record: both partners purified.

The source of these data is article PMC3688683, “The N-Terminal Domains of Vps3 and Vps8 Are Critical for Localization and Function of the CORVET Tethering Complex on Endosomes” (PLoS ONE, 2013).

B1: GST-Vps21 (natural protein, yeast, UniProt P36017 1-210, looked up)
chain: MNTSVTSIKLVLLGEAAVGKSSIVLRFVSNDFAENKEPTIGAAFLTQRVTINEHTVKFEIWDTAGQERFASLAPMYYRNAQAALVVYDVTKPQSFIKARHWVKELHEQASKDIIIALVGNKIDMLQEGGERKVAREEGEKLAEEKGLLFFETSAKTGENVNDVFLGIGEKIPLKTAEEQNSASNERESNNQRVDLNAANDGTSANSACSC
notes: Vps21, endosomal Rab5-like GTPase of yeast; loaded with GTPγS or GDP before the pull-down; Held on GSH-Sepharose; nucleotide state set by loading with 1 mM GTPγS or GDP; also called Vps21-GTP; immobilized Vps21; source: recombinant
Turning to B1, the binding result is recorded as “binds”.
